According to US20230348588A1 (published 2023):

Biological target: extracellular domain (ECD) of recombinant human Sortilin with a C-terminal HIS tag (ECD-huSortilin-HIS) (UniProt Q99523 78-755)
Experiment: ELISA

extracellular domain (ECD) of recombinant human Sortilin with a C-terminal HIS tag (ECD-huSortilin-HIS), sequence (Q99523 78-755): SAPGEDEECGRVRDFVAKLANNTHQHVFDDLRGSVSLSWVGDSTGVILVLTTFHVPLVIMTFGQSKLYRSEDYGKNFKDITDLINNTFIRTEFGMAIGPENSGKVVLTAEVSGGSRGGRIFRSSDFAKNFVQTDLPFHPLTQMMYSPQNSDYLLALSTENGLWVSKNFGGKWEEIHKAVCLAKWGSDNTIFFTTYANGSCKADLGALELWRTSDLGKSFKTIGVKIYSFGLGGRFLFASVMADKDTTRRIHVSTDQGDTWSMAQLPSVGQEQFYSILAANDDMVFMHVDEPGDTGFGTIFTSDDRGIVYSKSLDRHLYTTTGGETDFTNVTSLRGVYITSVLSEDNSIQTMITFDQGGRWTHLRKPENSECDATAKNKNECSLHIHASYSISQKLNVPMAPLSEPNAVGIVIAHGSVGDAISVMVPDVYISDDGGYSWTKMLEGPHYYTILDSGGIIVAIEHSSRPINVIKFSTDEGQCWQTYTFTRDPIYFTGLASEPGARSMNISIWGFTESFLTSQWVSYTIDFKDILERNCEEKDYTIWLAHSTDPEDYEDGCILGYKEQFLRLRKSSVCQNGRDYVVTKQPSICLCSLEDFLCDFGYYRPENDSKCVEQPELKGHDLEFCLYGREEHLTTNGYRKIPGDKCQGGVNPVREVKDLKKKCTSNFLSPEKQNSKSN

B1: mouse monoclonal antibody 4N2 (antibody, V domains shown)
VH: EVKLVESGGGLVKPGGSLKLSCGASGFTFSNYVMSWVRQTPERRLEWVATISGGGRYSYYPDSVKGRFTISRDNAKNNLYLQMSSLRSEDTALYYCGRQDDYDSFPYCGQGTLVTVSV
VL: DILLTQSPAILSVSLGERVSFSCRASQSIGTSIHWFQLRTNGSPRLLIKYASEPISGIPSRFSGSGSGTDFTLSINSVESEDIADYFCQQSKSWPITFGTGTKLELK
- EC50: 5.8 nM
